Data taken from US20160297851A1, “BROAD SPECTRUM […]” (priority 2012, published 2016).

Tests used:
[1] = biological target: full-length wild type S. aureus SPase (His6x-tagged SpsB) (Staphylococcus aureus); experiment: steady-state binding by increase of arylomycin fluorescence; full-length His-tagged S. aureus SPase, buffer with 10% glycerol
[2] = biological target: full-length P29S mutant of S. aureus SPase (His6x-tagged SpsB(P29S)) (Staphylococcus aureus); experiment: as above
[3] = biological target: full-length P29S mutant of S. aureus SPase (His6x-tagged SpsB(P29S)) (Staphylococcus aureus); experiment: steady-state increase of arylomycin fluorescence (ex 320 nm, em 410 nm) on binding full-length S. aureus SPase P29S
[4] = biological target: P84S variant of the truncated E. coli SPase (Δ2-75) (Escherichia coli) (UniProt P00803); experiment: steady-state binding by increase of arylomycin fluorescence (ex 320 nm, em 410 nm); truncated SPase in n-octyl-β-glucopyranoside micelles
[5] = biological target: full-length wild type S. aureus SPase (His6x-tagged SpsB) (Staphylococcus aureus); experiment: steady-state increase of arylomycin fluorescence (ex 320 nm, em 410 nm) on binding full-length wild type S. aureus SPase
[6] = biological target: P84S variant of the truncated E. coli SPase (Δ2-75) (Escherichia coli) (UniProt P00803); experiment: steady-state increase of arylomycin fluorescence (ex 320 nm, em 410 nm) on binding the soluble N-terminally truncated (delta 2-75) E. coli SPase P84S

With arylomycin C16 (peptide) the Kd [1] was 1280 nM, the Kd [2] was 130 nM and the EC50 (read off the curve) [3] was 200 nM. For the same substance, the Kd [4] was 39 nM, the EC50 (read off the curve) [5] was 2000 nM and the EC50 (read off the curve) [6] was 90 nM.
